# Measurements reported in IntAct's records for PubMed 21382479.
# B1: Caveolin-1 (Homo sapiens), Q03135 (parent)
# chain: MSGGKYVDSEGHLYTVPIREQGNIYKPNNKAMADELSEKQVYDAHTKEIDLVNRDPKHLNDDVVKIDFEDVIAEPEGTHSFDGIWKASFTTFTVTKYWFYRLLSALFGIPMALIWGIYFAILSFLHIWAVVPCIKSFLIEIQCISRVYSIYVHTVCDPLFEAVGKIFSNVRINLQKEI
# partner: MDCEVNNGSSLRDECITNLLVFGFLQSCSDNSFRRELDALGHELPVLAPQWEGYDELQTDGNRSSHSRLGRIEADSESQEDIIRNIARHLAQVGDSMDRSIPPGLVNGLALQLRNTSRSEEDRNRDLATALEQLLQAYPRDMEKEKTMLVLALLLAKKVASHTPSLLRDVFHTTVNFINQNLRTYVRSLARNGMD
# Variants of: B1
# Conditions: with bid_human BID
row,effect of a mutation on the interaction,Variant
1,disrupting interaction,MSGGKYVDSEGHLFTVPIREQGNIYKPNNKAMADELSEKQVYDAHTKEIDLVNRDPKHLNDDVVKIDFEDVIAEPEGTHSFDGIWKASFTTFTVTKYWFYRLLSALFGIPMALIWGIYFAILSFLHIWAVVPCIKSFLIEIQCISRVYSIYVHTVCDPLFEAVGKIFSNVRINLQKEI [Y14F]
